Earlier results on two substances are cited in PMC5488128 (CPT: Pharmacometrics & Systems Pharmacology, 2017).

For series [1] the following is noted: subcutaneously applied, tested up to 30U.
The test system of series [2] is glucose infusion rate (GIR). Particulars: type-1 patients, up to 90U insulin Lispro, GIR recording time of 12 h.

For “RHI: subcutaneously (s.c.) administered regular human insulin”, in series [1], the “dose proportionality of exposure” value is “dose‐proportional”.

On to “insulin lispro: prandial insulin analog, comparator in clamp study NCT02470637”, for which the ED50 in series [2] is 51 U.
